Results reported in article PMC9529537 (The Innovation, 2022).

B1: YD73 Fab (Fab, V domains shown)
VH: QVQLVQSGAEVKKPGASVKVSCKASGYTFIAYGISWVRQAPGQGLEWMGWISAHNGNTNYAQKFQGRVTVTTDTTTRTAFMELRNLRSDDTAVYYCARAPWEYNYRSSGYYDSPYWGQGTLVTVSS
VL: EIVLTQSPGTLSLSPGERATLSCRASQSVVSTYLAWYQQKPGQAPRLLIYDTSTRATGIPDRFSGSGSGTDFTLTISRLEPEDFAVYYCQHYDSSPPWTFGQGTKVEIK
B2: YD6 Fab (Fab, V domains shown)
VH: EVQLVESGGGLVKPGGSLRLSCAASGFIFSDYYMMWIRQAPGKGLEWISYISSSGSQIYYTESVKGRFTISRDNGKNLLYLQMNSLRGEDTALYYCATETGWRIDTWGQGTLVTVSS
VL: QAVLTQPASVSGSPGQSITISCTGTGSNIETYNLVSWYQRHPGKAPKLILYEVSERPSGVSNRFSGSKSGNTASLTISGLQAEDEADYFCCSYADTNIFWVFGGGTHLTVL
B3: YD6 scFv (scFv, V domains shown)
VH: EVQLVESGGGLVKPGGSLRLSCAASGFIFSDYYMMWIRQAPGKGLEWISYISSSGSQIYYTESVKGRFTISRDNGKNLLYLQMNSLRGEDTALYYCATETGWRIDTWGQGTLVTVSS
VL: QAVLTQPASVSGSPGQSITISCTGTGSNIETYNLVSWYQRHPGKAPKLILYEVSERPSGVSNRFSGSKSGNTASLTISGLQAEDEADYFCCSYADTNIFWVFGGGTHLTVL

The binders below were run against yellow fever virus soluble envelope (E) protein (Yellow fever virus, strain CNYF01/2016 …) (assay: crystal structure).

**Q.** Does B1 bind?
**A.** binds

**Q.** Does B2 bind?
**A.** binds

**Q.** Does B3 bind?
**A.** binds
